Assays:
rat paw oedema = test: λ carrageenan-induced paw oedema after oral administration (gavage); assay type: in vivo; conditions: dose of 0.5 mg/kg
Description: To study the comparative kinetics of the anti-inflammatory action of a free form of SOD and a composition according to the invention, at different concentrations.
2 gavages are performed per day (morning and evening).
Injection of 0.1 ml of λ carrageenan 1% in the paw pad.
The measurements are made every hour for 6 hours.

[1] = Erythrocyte SOD kinetics in anaesthetized rats after oral administration (gavage); parameters: species or system rat (male OFA, Sprague-Dawley); conditions: rat, in vivo
Description: (§1) The kinetics of the plasmatic SOD are analyzed in anaesthetized rats after the oral or subcutaneous administration of free SOD, liposomal SOD or SOD in the form of a composition according to the invention.
(§2) The rats used are male OFA, Sprague-Dawley rats which are devoid of pathogenic germs, weigh 300 to 400 g and are not of the same blood type (IFFA CREDO breed).
bovine erythrocyte SOD (Allerbiodose®) 1-2-4 mg/ml, in NaCl 0.9%,
bovine erythrocyte SOD 1-2-4 mg/ml+plant ceramides 1% (Inocosm), in NaCl 0.9%, according to the invention,
liposomal bovine erythrocyte SOD 1-2-4 mg/ml,
(§3) bovine erythrocyte SOD+gliadin, according to the invention.
The gavage is performed on the animals (n=4) at T0 with a volume of 1 ml of solution or suspension to be studied, in 0.9% NaCl solution. This gavage is performed using a cannula mounted on a 1 ml syringe and introduced into the buccal cavity of the rat.
(§4) Each series of experiments is carried out on 4 animals per dose, the control groups always being treated in parallel for each experiment.
(§5) Once the gavage (or the subcutaneous injection) has been performed on the animals, the latter are anaesthetized by the slow intraperitoneal injection of thiopental (0.1 ml/100 g).
The samples are taken every hour for 6 hours (400 μl) via the one-way tap. The blood is collected in heparinated Eppendorf tubes (20 μl of heparin 1000 IU/ml). It is then centrifuged for 5 min at 4000 rpm. The plasma is then discarded and replaced with NaCl 0.9%. The tubes are centrifuged again for 5 min at 4000 rpm. The red blood cells are thus washed three times in succession.
The assays of the enzymatic activity of the erythrocyte SOD (of each form) are performed on each control or treated sample.
The erythrocytes are appropriately diluted in distilled water (+0.5 ml of 1% Triton solution) so that the inhibition obtained in the study tube is about 50% of that in the control tube.
The results obtained in IU SOD/ml are reported in IU SOD/mg haemoglobin. The haemoglobin is assayed by spectrophotometry at 405 nm.

[2] = Erythrocyte SOD kinetics in anaesthetized rats after subcutaneous administration; parameters: species or system rat (male OFA, Sprague-Dawley); conditions: rat, in vivo, sc
Description: as §1, §2
Subcutaneous administration:
bovine erythrocyte SOD (Allerbiodose®) 0.5-1-2 mg/ml, in NaCl 0.9%,
bovine erythrocyte SOD 0.5-1-2 mg/ml+plant ceramides 1% (Inocosm), in NaCl 0.9%, according to the invention,
liposomal bovine erythrocyte SOD 0.5-1-2 mg/ml,
as §3
The solutions or suspensions to be studied are administered at T0 by the injection of a volume of 0.3 ml (in 0.9% NaCl solution) behind the animal's head (n=4).
as §4, §5
The samples are taken every hour for 6 hours (400 μl) via the one-way tap. The blood is collected in heparinated Eppendorf tubes (20 μl of heparin 1000 IU/ml). It is then centrifuged for 5 min at 4000 rpm. […]

granulocytes = test: Granulocyte activation (production of superoxide anions after stimulation with zymosan or PMA); assay type: cell-based
Description: The samples are those collected 3 hours after pleurisy.
Reagent control: PBS^+ (0.65 ml)+cytochrome C 5 mg/ml (0.15 ml).
Cell control: PBS^+ (0.65 ml)+cytochrome C 5 mg/ml (0.15 ml)+G 10 M/ml (0.2 ml).
Test: PBS^+ (0.45 ml)+cytochrome C 5 mg/ml (0.15 ml)+ZO or PMA (0.2 ml), with: NaCl control (column 1), SOD (column 2), Ceramide control (column 3), SOD+ceramides (column 4), Liposome control (column 5), Liposomal SOD (column 6).
Incubate for 15 minutes in a water bath at 37° C., with shaking,
stop the reaction for 10 minutes in an ice bath,
centrifuge for 5 minutes at 2000 rpm.

SOD: bovine erythrocyte SOD (Allerbiodose®), in NaCl 0.9%
Number of gavages from which the anti-inflammatory effect is observed (rat paw oedema): ≥ 4 gavages | Cmax (comparison in words) [1]: lower | Concentrations/passage of SOD after oral administration (in words) [1]: reaches high concentrations when administered orally | Tmax [1]: around 5 hours | Cmax (comparison in words) [2]: slightly lower | Significance (P) of the anti-inflammatory role (granulocytes; by oral administration): < 0.05 | Effect of oral administration on granulocyte activation (in words) (granulocytes; oral administration, FIGS. 18 to 20): inhibitory effect

— patent US6045809A, “Pharmaceutical compositions containing a superoxide dismutase” (Institut de Recherches Franctales, priority 1995, dated 2000)
